Here are results for one substance from article PMC11282748.

The test has as its target foldase protein PrsA of Staphylococcus aureus MW2 (recombinant, without signal peptide) (Staphylococcus aureus MW2). Kind of test: SEC-MALS; Superdex 200 Increase 10/300; ~1 mg of protein loaded; 50 mM Tris-HCl, 150 mM NaCl, 2.5% (v/v) glycerol, pH 7.8; flow 0.4 ml/min. On the technique in general: In gel filtration, larger molecules generally elute earlier.

Take “foldase protein PrsA of Staphylococcus aureus MW2 (recombinant, without signal peptide) (natural protein)”: the stoichiometry N came to 2.

Usually stoichiometry N stands for the number of molecules, sites or subunits per partner or assembly.
